The text below walks through data of the supplement of paper PMC11780869.

For this data set, the system named is Bacillus subtilis. The data set can be described thus: cleaved RNA product abundance (RNA/gDNA barcode ratio) relative to median wild-type variant (ratio to wild type); higher = more accumulation of the downstream cleavage product. As to conditions: cleavage site: cggR-gapA (positions -7 to +36 mutated). The method, boiled down:
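Truncated aprE or tetM reporter mRNAs with barcoded RNase Y cleavage-site windows, mutagenized from oligos at a 9% error rate, sat in the B. subtilis chromosome. Cells grew in LB at 37°C from OD600 0.0003 to 0.3. Gel-selected cleaved RNA was reverse transcribed and its barcodes sequenced with those from genomic DNA, collapsing by UMI. Cleaved product abundance equals the RNA:gDNA barcode ratio per construct over the median construct with the unmutated site.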

The mark [1] stands for this setting: experiment (reporter, strain, medium): exp 4a: truncated aprE reporter, strain BJT201 with 2% xylose (RNase J1 expressed).
[2] abbreviates: experiment (reporter, strain, medium): exp 2b: truncated aprE reporter, strain BJT200.
Where [3] appears, read: experiment (reporter, strain, medium): exp 6: tetM reporter, strain 168.

For “ACAGACGAAGGAGCCGCAAAGAAGTTATTAAGGGATGAATAGTCCCTCAATATAAAAATCTCTCACTTATTTAAA”, under setting [1], the “cleaved RNA product abundance” value came out at 1. Turning to “ACAGACGAAGGAGCCGCAAAGAAGTTATTAAGGGATGAATAGTCCCTCAATATAAATATCTCTCACTTATTTAAA”, the “cleaved RNA product abundance” value runs as follows: under setting [2], 0.912; under setting [1], 0.857; under setting [3], 1.25. With “ACAGACGAAGGAGCCGCAAAGAAGTTATTAAGGGATGAATAGTCCCTCATTATAAATATCTCTCACTTATTTAAA”, under setting [1], the “cleaved RNA product abundance” value stood at 0.235. Same read-out and setting: with “ACAGACGAAGGAGCCGCAAAGAAGTTATTAAGGGATGAATAGTCCCTGAATATAAATATCTCTCACTTATTTAAA” the figure was 0.334; with “ACAGACGAAGGAGCCGCAAAGAAGTTATTAAGGGATGAATAGTCCTTCAATATAAATATCTCTCACTTATTTAAA”, 0.359; with “ACAGACGAAGGAGCCGCAAAGAAGTTATTAAGGGATGAATATACCCTCAATATAAATATCTCTCACTTATTTAAA”, 0.485.

Consider “ACAGACGAAGGAGCCGCAAAGAAGTTATTAAGGGATGAATATCCCCTCAATATAAATATCTCTCACTTATTTAAA”, for which the “cleaved RNA product abundance” value under setting [1] stood at 0.455. Same read-out and setting: then “ACAGACGAAGGAGCCGCAAAGAAGTTATTAAGGGATGAATATGCCCTCAATATAAATATCTCTCACTTATTTAAA”, with 0.363; and “ACAGACGAAGGAGCCGCAAAGAAGTTATTAAGGGATGAATATTCACTCAATATAAATATCTCTCACTTATTTAAA”, with 0.18.

Take “ACAGACGAAGGAGCCGCAAAGAAGTTATTAAGGGATGAATATTCCATCAATATAAATATCTCTCACTTATTTAAA”: the “cleaved RNA product abundance” value under setting [2] amounted to 0.141 and the “cleaved RNA product abundance” value under setting [1] was determined as 0.312.

On to “ACAGACGAAGGAGCCGCAAAGAAGTTATTAAGGGATGAATATTCCCACAATATAAATATCTCTCACTTATTTAAA”, for which the “cleaved RNA product abundance” value under setting [2] came to 0.177 and the “cleaved RNA product abundance” value under setting [1] stood at 0.178.

On to “ACAGACGAAGGAGCCGCAAAGAAGTTATTAAGGGATGAATATTCCCGCAATATAAATATCTCTCACTTATTTAAA”, for which the “cleaved RNA product abundance” value under setting [1] was 0.221. For “ACAGACGAAGGAGCCGCAAAGAAGTTATTAAGGGATGAATATTCCCTAAATATAAATATCTCTCACTTATTTAAA”, the “cleaved RNA product abundance” value under setting [1] was determined as 0.462. Consider “ACAGACGAAGGAGCCGCAAAGAAGTTATTAAGGGATGAATATTCCCTCAAAATAAATATCTCTCACTTATTTAAA”, for which the “cleaved RNA product abundance” value runs as follows: under setting [2], 0.231; under setting [1], 0.224.

Consider “ACAGACGAAGGAGCCGCAAAGAAGTTATTAAGGGATGAATATTCCCTCAAGATAAATATCTCTCACTTATTTAAA”, for which the “cleaved RNA product abundance” value runs as follows: under setting [2], 0.254; under setting [1], 0.243. As for “ACAGACGAAGGAGCCGCAAAGAAGTTATTAAGGGATGAATATTCCCTCAATAAAAATATCTCTCACTTATTTAAA”, under setting [1], the “cleaved RNA product abundance” value came to 0.156.

Take “ACAGACGAAGGAGCCGCAAAGAAGTTATTAAGGGATGAATATTCCCTCAATATAAATATCTCTCACTTATTTAAA”: the “cleaved RNA product abundance” value stood at 0.675 under setting [2], 0.699 under setting [1] and 0.84 under setting [3]. Take “ACAGACGAAGGAGCCGCAAAGAAGTTATTAAGGGATGAATATTCCCTCAATATAAATCTCTCTCACTTATTTAAA”: under setting [1], the “cleaved RNA product abundance” value worked out at 0.471. For “ACAGACGAAGGAGCCGCAAAGAAGTTATTAAGGGATGAATATTCCCTCACTATAAATATCTCTCACTTATTTAAA”, the “cleaved RNA product abundance” value under setting [2] is 0.121. Turning to “ACAGACGAAGGAGCCGCAAAGAAGTTATTAAGGGATGAATATTCCCTCATTATAAATATCTCTCACTTATTTAAA”, the “cleaved RNA product abundance” value under setting [1] stood at 0.316.

In the case of “ACAGACGAAGGAGCCGCAAAGAAGTTATTAAGGGATGAATATTCCCTCCATATAAATATCTCTCACTTATTTAAA”, the “cleaved RNA product abundance” value under setting [1] is 0.193. In the case of “ACAGACGAAGGAGCCGCAAAGAAGTTATTAAGGGATGAATATTCCCTTAATATAAATATCTCTCACTTATTTAAA”, the “cleaved RNA product abundance” value stood at 1.01 under setting [2] and 0.526 under setting [1]. Take “ACAGACGAAGGAGCCGCAAAGAAGTTATTAAGGGATGAATATTCCGTCAATATAAATATCTCTCACTTATTTAAA”: under setting [1], the “cleaved RNA product abundance” value was 0.194. Still for that read-out and setting: with “ACAGACGAAGGAGCCGCAAAGAAGTTATTAAGGGATGAATATTCCTTCAATATAAATATCTCTCACTTATTTAAA” the figure was 0.546. Still for that read-out and setting: with “ACAGACGAAGGAGCCGCAAAGAAGTTATTAAGGGATGAATATTCGCTCAATATAAATATCTCTCACTTATTTAAA” the figure was 0.086. For the sequence “ACAGACGAAGGAGCCGCAAAGAAGTTATTAAGGGATGAATATTCTCTCAATATAAATATCTCTCACTTATTTAAA”, the “cleaved RNA product abundance” value under setting [2] amounted to 0.265 and the “cleaved RNA product abundance” value under setting [1] amounted to 0.343. On to “ACAGACGAAGGAGCCGCAAAGAAGTTATTAAGGGATGAATATTGCCTCAATATAAATATCTCTCACTTATTTAAA”, for which the “cleaved RNA product abundance” value under setting [1] was found to be 0.107. On to “ACAGACGAAGGAGCCGCAAAGAAGTTATTAAGGGATGAATATTTCCTCAATATAAATATCTCTCACTTATTTAAA”, for which the “cleaved RNA product abundance” value reads like this: under setting [2], 0.188; under setting [1], 0.186.

Consider “ACAGACGAAGGAGCCGCAAAGAAGTTATTAAGGGATGAATCAGCCCTCAATATAAATATCTCTCACTTATTTAAA”, for which, under setting [1], the “cleaved RNA product abundance” value was determined as 0.813. For the sequence “ACAGACGAAGGAGCCGCAAAGAAGTTATTAAGGGATGAATCATACCTCAATATAAATATCTCTCACTTATTTAAA”, the “cleaved RNA product abundance” value is 0.164 under setting [2] and 0.215 under setting [1]. On to “ACAGACGAAGGAGCCGCAAAGAAGTTATTAAGGGATGAATCATCCATCAATATAAATATCTCTCACTTATTTAAA”, for which the “cleaved RNA product abundance” value under setting [1] came to 0.219. For the sequence “ACAGACGAAGGAGCCGCAAAGAAGTTATTAAGGGATGAATCATCCCACAATATAAATATCTCTCACTTATTTAAA”, the “cleaved RNA product abundance” value under setting [2] worked out at 0.21 and the “cleaved RNA product abundance” value under setting [1] was 0.192. For the sequence “ACAGACGAAGGAGCCGCAAAGAAGTTATTAAGGGATGAATCATCCCCCAATATAAATATCTCTCACTTATTTAAA”, under setting [1], the “cleaved RNA product abundance” value is 0.296. For the sequence “ACAGACGAAGGAGCCGCAAAGAAGTTATTAAGGGATGAATCATCCCTAAATATAAATATCTCTCACTTATTTAAA”, the “cleaved RNA product abundance” value was determined as 0.597 under setting [2] and 1 under setting [1]. With “ACAGACGAAGGAGCCGCAAAGAAGTTATTAAGGGATGAATCATCCCTCAAGATAAATATCTCTCACTTATTTAAA”, the “cleaved RNA product abundance” value under setting [1] was determined as 0.27. On the same count and under the same terms, then “ACAGACGAAGGAGCCGCAAAGAAGTTATTAAGGGATGAATCATCCCTCAATAAAAATATCTCTCACTTATTTAAA”, with 0.197; and “ACAGACGAAGGAGCCGCAAAGAAGTTATTAAGGGATGAATCATCCCTCAATATAAATAACTCTCACTTATTTAAA”, with 0.573. For “ACAGACGAAGGAGCCGCAAAGAAGTTATTAAGGGATGAATCATCCCTCAATATAAATATCTCTCACTTATTTAAA”, the “cleaved RNA product abundance” value runs as follows: under setting [2], 0.721; under setting [1], 0.902; under setting [3], 0.917. In the case of “ACAGACGAAGGAGCCGCAAAGAAGTTATTAAGGGATGAATCATCCCTCAATTTAAATATCTCTCACTTATTTAAA”, the “cleaved RNA product abundance” value under setting [2] is 0.169. Consider “ACAGACGAAGGAGCCGCAAAGAAGTTATTAAGGGATGAATCATCCCTCACTATAAATATCTCTCACTTATTTAAA”, for which the “cleaved RNA product abundance” value under setting [1] is 0.22. Still for that read-out and setting: then “ACAGACGAAGGAGCCGCAAAGAAGTTATTAAGGGATGAATCATCCCTTAATATAAATATCTCTCACTTATTTAAA”, with 0.46; and “ACAGACGAAGGAGCCGCAAAGAAGTTATTAAGGGATGAATCATCTCTCAATATAAATATCTCTCACTTATTTAAA”, with 0.595. Consider “ACAGACGAAGGAGCCGCAAAGAAGTTATTAAGGGATGAATCATGCCTCAATATAAATATCTCTCACTTATTTAAA”, for which the “cleaved RNA product abundance” value under setting [2] came to 0.164 and the “cleaved RNA product abundance” value under setting [1] came to 0.251. For the sequence “ACAGACGAAGGAGCCGCAAAGAAGTTATTAAGGGATGAATCTTCCCTCAATATAAATATCTCTCACTTATTTAAA”, the “cleaved RNA product abundance” value under setting [1] amounted to 1.05. The same measure, in the same setting: with “ACAGACGAAGGAGCCGCAAAGAAGTTATTAAGGGATGAATGATCCATCAATATAAATATCTCTCACTTATTTAAA” the figure was 0.259. “ACAGACGAAGGAGCCGCAAAGAAGTTATTAAGGGATGAATGATCCCACAATATAAATATCTCTCACTTATTTAAA”: the “cleaved RNA product abundance” value reads like this: under setting [2], 0.121; under setting [1], 0.101. In the case of “ACAGACGAAGGAGCCGCAAAGAAGTTATTAAGGGATGAATGATCCCTAAATATAAATATCTCTCACTTATTTAAA”, the “cleaved RNA product abundance” value under setting [1] turned out to be 0.488. In the case of “ACAGACGAAGGAGCCGCAAAGAAGTTATTAAGGGATGAATGATCCCTCAAAATAAATATCTCTCACTTATTTAAA”, the “cleaved RNA product abundance” value runs as follows: under setting [2], 0.14; under setting [1], 0.149. With “ACAGACGAAGGAGCCGCAAAGAAGTTATTAAGGGATGAATGATCCCTCAATATAAAAATCTCTCACTTATTTAAA”, the “cleaved RNA product abundance” value under setting [1] was 0.651. Regarding “ACAGACGAAGGAGCCGCAAAGAAGTTATTAAGGGATGAATGATCCCTCAATATAAATATCTCTCACTTATTTAAA”, the “cleaved RNA product abundance” value runs as follows: under setting [2], 0.466; under setting [1], 0.699; under setting [3], 0.63. As for “ACAGACGAAGGAGCCGCAAAGAAGTTATTAAGGGATGAATGATCCCTCAATCTAAATATCTCTCACTTATTTAAA”, the “cleaved RNA product abundance” value under setting [1] worked out at 0.0934. On to “ACAGACGAAGGAGCCGCAAAGAAGTTATTAAGGGATGAATGATCCCTCCATATAAATATCTCTCACTTATTTAAA”, for which the “cleaved RNA product abundance” value under setting [2] is 0.123.

As to “ACAGACGAAGGAGCCGCAAAGAAGTTATTAAGGGATGAATGATCCCTGAATATAAATATCTCTCACTTATTTAAA”, the “cleaved RNA product abundance” value under setting [1] worked out at 0.383.
